Data as given in the supplement of paper PMC7125110.
± gives the standard error. Fewer inactive variants are shown than the library holds.

B1: glmS ribozyme (parent)
chain: AUAAAAGCGCCAGAACUACAGAAAUGUAGUUGACGAGGAGGAGGUUUAUCGAAUUUUCGGCGGAUGCCUCCAAA

Variants of: B1
Assay: self-cleavage kobs at 640 uM GlcN6P; higher = faster cleavage; RNA array
Details: with glucosamine-6-phosphate
How it was run: (§1)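 Tiles bearing barcoded ribozyme variants, transcribed in situ by E. coli RNA polymerase on sequenced MiSeq chips, were imaged over ~14 h at 37 °C using a hybridised Cy3 probe. Glucosamine-6-phosphate was supplied at 40 μM to 10 mM in HEPES/KCl/Mg(OAc)2 buffer. kobs came from one- or two-exponential decay fits to normalised per-tile medians, and weighted Michaelis–Menten fits then provided kcat and KM.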

Variant	self-cleavage kobs at 640 uM GlcN6P [s⁻¹]
C50G A52U G63C	< 1e-05
C50A G60C C68U	4.56e-05 ± 2.1e-05
U45G U47G C71U	0.000978 ± 0.00031
G44C U47G	< 1e-05
U47C U69C	0.000374 ± 0.00011
U47C U69G	4.72e-05 ± 1.9e-05
A52C G59A U65A	< 1e-05
G60U C67G C68U C70G	< 1e-05
U45G U46C G59U U65G U69G	< 1e-05
A53C U55G C71G	0.000116 ± 3.1e-05
U46G G62C	< 1e-05
A42C G51A U69A	< 1e-05
A48C U56G G60A C61G	< 1e-05
U46A C70G	0.000146 ± 4.1e-05
A48U U57G G62U	< 1e-05
U45C C71G	8.57e-05 ± 2.5e-05
U46C A48U C50G G51U	< 1e-05
C58G C61U G63U C68A	0.000162 ± 5.6e-05
C70U A72C	0.000987 ± 0.00042
A42C U54A U65C	< 1e-05
U49C A52U G62U	< 1e-05
G43U G63U C71G	< 1e-05
A48C G60C C71G	< 1e-05

Variants of: B1
Assay: self-cleavage kobs at 2500 uM GlcN6P; higher = faster cleavage; RNA array
Details: with glucosamine-6-phosphate
How it was run: as §1

Variant	self-cleavage kobs at 2500 uM GlcN6P [s⁻¹]
C50G A52U G63C	< 1e-05
A6G G60A C67G	< 1e-05
U47C U69C	0.00197 ± 0.00045
U47C U69G	0.000104 ± 2.3e-05
A6U C11U C34G G40A A52G G60A C71A	< 1e-05
A6G G7U C70G	5.26e-05 ± 2.1e-05
A6C G9A G32A	< 1e-05
A6C U47C G63C	< 1e-05
A52C G59A U65A	< 1e-05
U45G U46C G59U U65G U69G	< 1e-05
A6C U46C U49C G63A	< 1e-05
U46A C70G	0.00037 ± 0.00011
A48U U57G G62U	< 1e-05
U45C C71G	5.59e-05 ± 2.2e-05
G7A C8U A36G G60U	< 1e-05
U46C A48U C50G G51U	< 1e-05
C58G C61U G63U C68A	0.000151 ± 4.4e-05
C70U A72C	0.0035 ± 0.0017
A6U A53U G63U	< 1e-05
G43U G63U C71G	< 1e-05
A48C G60C C71G	< 1e-05

Variants of: B1
Assay: self-cleavage kobs at 10000 uM GlcN6P; higher = faster cleavage; RNA array
Details: with glucosamine-6-phosphate
How it was run: as §1

Variant	self-cleavage kobs at 10000 uM GlcN6P [s⁻¹]
U47C U69G	6.08e-05 ± 1.5e-05
U46G G62C	< 1e-05
U46A C70G	0.000156 ± 3.1e-05
U45C C71G	0.000305 ± 6.9e-05
U46C A48U C50G G51U	< 1e-05
